In US20220348894, “DNA MODIFYING ENZYMES AND ACTIVE FRAGMENTS AND VARIANTS THEREOF AND METHODS OF USE” (LifeEDIT Therapeutics, Inc., published 2022):

T1: APG07433.1-del (residues 590-597 deleted)
T1 chain: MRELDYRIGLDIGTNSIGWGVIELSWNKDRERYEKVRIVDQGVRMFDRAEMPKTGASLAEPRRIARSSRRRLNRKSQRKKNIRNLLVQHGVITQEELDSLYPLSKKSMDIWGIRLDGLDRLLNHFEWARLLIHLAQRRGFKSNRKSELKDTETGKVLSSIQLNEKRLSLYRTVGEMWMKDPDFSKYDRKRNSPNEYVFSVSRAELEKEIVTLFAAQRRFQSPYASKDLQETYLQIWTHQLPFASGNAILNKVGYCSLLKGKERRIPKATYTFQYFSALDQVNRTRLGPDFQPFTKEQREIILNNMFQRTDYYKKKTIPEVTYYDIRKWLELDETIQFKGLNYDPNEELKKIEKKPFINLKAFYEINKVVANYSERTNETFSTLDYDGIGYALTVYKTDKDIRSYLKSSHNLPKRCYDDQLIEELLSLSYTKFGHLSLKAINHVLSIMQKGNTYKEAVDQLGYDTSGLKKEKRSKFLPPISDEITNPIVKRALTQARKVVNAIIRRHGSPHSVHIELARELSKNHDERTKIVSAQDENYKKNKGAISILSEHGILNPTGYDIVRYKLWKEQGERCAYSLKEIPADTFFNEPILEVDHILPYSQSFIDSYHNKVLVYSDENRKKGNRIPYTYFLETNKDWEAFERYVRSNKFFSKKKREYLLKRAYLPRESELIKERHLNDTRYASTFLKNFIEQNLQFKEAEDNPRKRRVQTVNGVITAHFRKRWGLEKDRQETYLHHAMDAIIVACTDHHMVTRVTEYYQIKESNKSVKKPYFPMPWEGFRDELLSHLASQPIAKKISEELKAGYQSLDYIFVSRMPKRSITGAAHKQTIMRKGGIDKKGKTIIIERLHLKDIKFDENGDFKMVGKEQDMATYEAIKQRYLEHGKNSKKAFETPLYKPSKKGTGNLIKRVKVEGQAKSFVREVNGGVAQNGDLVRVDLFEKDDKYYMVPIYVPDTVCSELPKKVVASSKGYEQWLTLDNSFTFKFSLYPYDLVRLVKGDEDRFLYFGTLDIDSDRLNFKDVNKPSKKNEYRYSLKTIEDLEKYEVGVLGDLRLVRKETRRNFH

T2: APG08290.1-del
T2 chain: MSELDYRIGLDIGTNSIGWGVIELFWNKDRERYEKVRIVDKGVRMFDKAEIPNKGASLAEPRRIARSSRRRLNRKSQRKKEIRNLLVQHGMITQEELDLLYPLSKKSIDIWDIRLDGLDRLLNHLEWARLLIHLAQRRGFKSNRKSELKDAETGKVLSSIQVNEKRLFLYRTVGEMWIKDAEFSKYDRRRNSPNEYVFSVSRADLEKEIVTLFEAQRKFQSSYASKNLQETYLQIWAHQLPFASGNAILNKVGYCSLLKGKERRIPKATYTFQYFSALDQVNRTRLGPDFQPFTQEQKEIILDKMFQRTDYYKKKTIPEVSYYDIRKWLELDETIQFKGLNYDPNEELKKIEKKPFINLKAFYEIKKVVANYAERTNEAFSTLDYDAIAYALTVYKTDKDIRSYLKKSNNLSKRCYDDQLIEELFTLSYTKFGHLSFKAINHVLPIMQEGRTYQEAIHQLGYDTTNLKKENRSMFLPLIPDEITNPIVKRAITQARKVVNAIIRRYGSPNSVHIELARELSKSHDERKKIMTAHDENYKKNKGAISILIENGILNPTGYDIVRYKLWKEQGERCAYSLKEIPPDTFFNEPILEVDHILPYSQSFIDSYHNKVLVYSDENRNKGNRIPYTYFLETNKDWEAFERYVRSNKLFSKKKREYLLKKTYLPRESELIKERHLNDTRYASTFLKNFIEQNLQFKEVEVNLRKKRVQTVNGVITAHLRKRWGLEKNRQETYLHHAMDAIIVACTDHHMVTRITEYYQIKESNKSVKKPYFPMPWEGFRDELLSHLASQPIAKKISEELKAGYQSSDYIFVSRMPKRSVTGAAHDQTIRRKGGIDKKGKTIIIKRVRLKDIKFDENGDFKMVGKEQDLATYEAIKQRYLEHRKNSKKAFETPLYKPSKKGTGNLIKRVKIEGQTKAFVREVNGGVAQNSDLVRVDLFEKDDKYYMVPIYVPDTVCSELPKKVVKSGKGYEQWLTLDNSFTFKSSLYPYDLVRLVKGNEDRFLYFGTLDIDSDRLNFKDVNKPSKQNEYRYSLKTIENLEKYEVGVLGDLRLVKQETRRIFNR

T3: APG08290.1 (Bacillus sp.)
T3 chain: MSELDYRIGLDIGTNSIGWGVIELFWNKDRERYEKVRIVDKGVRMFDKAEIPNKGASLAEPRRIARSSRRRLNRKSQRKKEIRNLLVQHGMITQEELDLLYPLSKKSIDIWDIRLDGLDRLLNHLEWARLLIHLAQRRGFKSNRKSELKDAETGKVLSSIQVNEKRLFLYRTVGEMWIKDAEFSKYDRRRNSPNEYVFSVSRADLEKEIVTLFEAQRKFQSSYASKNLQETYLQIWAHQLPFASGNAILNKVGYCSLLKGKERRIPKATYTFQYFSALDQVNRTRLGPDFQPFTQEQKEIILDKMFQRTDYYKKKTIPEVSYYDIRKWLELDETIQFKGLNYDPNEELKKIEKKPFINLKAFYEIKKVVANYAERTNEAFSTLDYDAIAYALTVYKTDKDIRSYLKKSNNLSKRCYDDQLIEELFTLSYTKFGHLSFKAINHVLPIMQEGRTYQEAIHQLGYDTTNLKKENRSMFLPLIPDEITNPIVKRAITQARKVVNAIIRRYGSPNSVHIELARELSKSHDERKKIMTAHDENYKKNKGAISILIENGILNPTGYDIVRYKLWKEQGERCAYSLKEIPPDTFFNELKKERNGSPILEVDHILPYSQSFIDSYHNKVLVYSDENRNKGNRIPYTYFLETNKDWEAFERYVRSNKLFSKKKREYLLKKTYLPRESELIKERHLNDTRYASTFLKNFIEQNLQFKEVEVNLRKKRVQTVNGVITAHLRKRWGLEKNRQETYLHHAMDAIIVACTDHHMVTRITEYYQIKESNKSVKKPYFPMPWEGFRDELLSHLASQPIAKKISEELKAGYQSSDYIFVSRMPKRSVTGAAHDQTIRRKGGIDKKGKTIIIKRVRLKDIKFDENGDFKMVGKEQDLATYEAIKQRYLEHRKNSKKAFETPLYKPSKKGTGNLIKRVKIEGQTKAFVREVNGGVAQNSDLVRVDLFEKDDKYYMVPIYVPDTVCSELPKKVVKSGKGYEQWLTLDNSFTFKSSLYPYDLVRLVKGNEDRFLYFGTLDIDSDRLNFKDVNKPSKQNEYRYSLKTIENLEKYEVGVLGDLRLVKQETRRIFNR

T4: APG07433.1 (Bacillus sp.)
T4 chain: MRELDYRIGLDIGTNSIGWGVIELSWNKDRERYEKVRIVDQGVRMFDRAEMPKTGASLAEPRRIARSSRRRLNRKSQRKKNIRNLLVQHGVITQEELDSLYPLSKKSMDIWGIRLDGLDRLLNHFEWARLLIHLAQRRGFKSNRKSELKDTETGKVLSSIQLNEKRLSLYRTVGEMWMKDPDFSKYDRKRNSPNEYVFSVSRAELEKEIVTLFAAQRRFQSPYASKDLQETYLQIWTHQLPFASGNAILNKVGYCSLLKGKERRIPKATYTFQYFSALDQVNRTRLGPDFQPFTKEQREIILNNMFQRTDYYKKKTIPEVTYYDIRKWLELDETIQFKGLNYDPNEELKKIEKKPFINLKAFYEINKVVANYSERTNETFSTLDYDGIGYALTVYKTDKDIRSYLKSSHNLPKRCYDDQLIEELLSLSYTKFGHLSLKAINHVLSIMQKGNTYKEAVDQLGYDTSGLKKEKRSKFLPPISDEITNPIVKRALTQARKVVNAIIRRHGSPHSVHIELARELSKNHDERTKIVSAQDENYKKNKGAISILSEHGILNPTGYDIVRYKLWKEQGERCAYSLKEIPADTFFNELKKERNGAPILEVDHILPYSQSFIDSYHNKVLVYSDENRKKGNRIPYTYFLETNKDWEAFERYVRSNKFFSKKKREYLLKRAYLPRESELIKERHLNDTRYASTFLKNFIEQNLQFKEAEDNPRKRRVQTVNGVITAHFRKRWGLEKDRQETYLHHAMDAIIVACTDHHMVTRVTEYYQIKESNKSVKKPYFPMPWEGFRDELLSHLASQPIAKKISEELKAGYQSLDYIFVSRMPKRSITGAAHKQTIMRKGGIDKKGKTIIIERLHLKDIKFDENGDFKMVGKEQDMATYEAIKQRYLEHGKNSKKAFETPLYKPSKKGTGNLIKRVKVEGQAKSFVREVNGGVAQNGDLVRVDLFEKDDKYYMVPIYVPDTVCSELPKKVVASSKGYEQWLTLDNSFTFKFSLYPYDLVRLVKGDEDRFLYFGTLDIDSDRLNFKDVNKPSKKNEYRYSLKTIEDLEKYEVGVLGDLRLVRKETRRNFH


Key:
[1] = molecular target: T1, APG07433.1-del (residues 590-597 …); test: cell_activity; editing rate HEK293T; PAM 3' of target
Source text: (§1) Through alignment with closely related homologs, a unique 8 amino acid region at positions 590-597 was identified in APG07433.1 and its close homolog APG08290.1 (described in WO 2019/236566 and set forth herein as SEQ ID NO: 60). This region, set forth as SEQ ID NO: 365 for APG07433.1 and SEQ ID NO: 367 for APG08290.1, was removed from both proteins, resulting in variant RGNs APG07433.1-del (SEQ ID NO: 366) and APG08290.1-del (SEQ ID NO: 368). These deletion variants and their corresponding wild-type RGNs were assayed for editing activity in HEK293T cells using the guide RNAs indicated in Tables 32 and 33 following methods similar to those described in Example 1.

[2] = molecular target: T2, APG08290.1-del; test: cell_activity; editing rate HEK293T; PAM not stated
Source text: as §1

[3] = molecular target: T3, APG08290.1; test: as above
Source text: as §1

[4] = molecular target: T4, APG07433.1; test: cell_activity; editing rate HEK293T; PAM 3' of target
Source text: as §1

Row | Binder | activity [1] [%] | activity [2] [%] | activity [3] [%] | activity [4] [%]
1 | SGN000186 sgRNA (Table 32) ; SGN000186 target (Table 32) (ssRNA ; dsDNA) RNA: GGACAGUGCGCAUCUCCCUGGUCAUAGUUCCAUUAAAGCCAAAAGUGGCUUUGAUGUUUCUAUGAUAAGGGUUUCGACCCGUGGCGUCGGGGAUCGCCUGCCCAUUGAAAUGGGCUUCUCCCCAUUUAUU DNA 1: GGACAGTGCGCATCTCCCTG DNA 2: CAGGGAGATGCGCACTGTCC | 15.2 |  |  | 
2 | SGN000930 sgRNA (Table 33) ; SGN000930 target (Table 33) (ssRNA ; dsDNA) RNA: GAACAACUCAAAUGGAAAUGAAUAUGUCAUAGUUCCAUGAAAGCCAAAAGUGGCUUUGAUGUUUCUAUGAUAAGGGUUUCGGCCCGUGGCGUCGGGGAUCGCCUGCCCAUUCCGAUGGGCUUCUCCCCAUUUAUU DNA 1: GAACAACTCAAATGGAAATGAATAT DNA 2: ATATTCATTTCCATTTGAGTTGTTC |  | 6.47 | 9.93 | 
3 | SGN000929 sgRNA ; SGN000929 target (ssRNA ; dsDNA) RNA: AUCUGGAGGGAACUUACAGCAUAUGGUCAUAGUUCCAUGAAAGCCAAAAGUGGCUUUGAUGUUUCUAUGAUAAGGGUUUCGGCCCGUGGCGUCGGGGAUCGCCUGCCCAUUCCGAUGGGCUUCUCCCCAUUUAUU DNA 1: ATCTGGAGGGAACTTACAGCATATG DNA 2: CATATGCTGTAAGTTCCCTCCAGAT |  | 0.61 | 1.83 | 
4 | SGN000139 sgRNA (Table 32) ; SGN000139 target (Table 32) (ssRNA ; dsDNA) RNA: AGGUUUUAAUGGCCCAGCCUGUCAUAGUUCCAUUAAAGCCAAAAGUGGCUUUGAUGUUUCUAUGAUAAGGGUUUCGACCCGUGGCGUCGGGGAUCGCCUGCCCAUUGAAAUGGGCUUCUCCCCAUUUAUU DNA 1: AGGTTTTAATGGCCCAGCCT DNA 2: AGGCTGGGCCATTAAAACCT |  |  |  | 11.1
5 | SGN000169 sgRNA ; SGN000169 target (ssRNA ; dsDNA) RNA: CACAUCUCGAGCAAGACGUUGUCAUAGUUCCAUUAAAGCCAAAAGUGGCUUUGAUGUUUCUAUGAUAAGGGUUUCGACCCGUGGCGUCGGGGAUCGCCUGCCCAUUGAAAUGGGCUUCUCCCCAUUUAUU DNA 1: CACATCTCGAGCAAGACGTT DNA 2: AACGTCTTGCTCGAGATGTG | 15.5 |  |  | 13.4
